Positions count from the first letter of the chain named.
T1: human IL-2Rγ expressed on cells (NK-92, Jurkat) (human) (UniProt P31785)
T1 sequence (looked up): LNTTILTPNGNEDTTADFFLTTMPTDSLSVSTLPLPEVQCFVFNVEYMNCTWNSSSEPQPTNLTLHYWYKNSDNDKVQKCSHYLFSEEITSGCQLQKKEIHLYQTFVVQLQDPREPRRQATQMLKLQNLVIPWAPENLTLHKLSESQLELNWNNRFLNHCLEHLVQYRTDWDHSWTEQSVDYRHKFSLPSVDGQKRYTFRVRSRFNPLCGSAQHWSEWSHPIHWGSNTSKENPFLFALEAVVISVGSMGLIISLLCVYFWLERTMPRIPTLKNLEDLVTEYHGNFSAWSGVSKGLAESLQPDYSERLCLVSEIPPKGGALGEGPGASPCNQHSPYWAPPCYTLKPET

T2: mouse IL-2Rγ expressed on cells (MC/9) (mouse) (UniProt P34902)
T2 sequence (looked up): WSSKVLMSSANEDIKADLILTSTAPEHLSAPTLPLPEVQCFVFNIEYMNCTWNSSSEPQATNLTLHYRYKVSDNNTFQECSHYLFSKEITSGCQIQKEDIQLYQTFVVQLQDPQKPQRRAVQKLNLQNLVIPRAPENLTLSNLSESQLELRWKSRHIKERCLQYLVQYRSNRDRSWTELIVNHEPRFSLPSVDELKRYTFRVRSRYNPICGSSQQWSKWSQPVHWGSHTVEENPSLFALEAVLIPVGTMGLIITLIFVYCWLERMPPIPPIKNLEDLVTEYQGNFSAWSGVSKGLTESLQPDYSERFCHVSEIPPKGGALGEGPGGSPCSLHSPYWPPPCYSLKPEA

T3: human IL2Rγ expressed on cells (human) (UniProt P31785)
T3 sequence (looked up): T1 sequence (looked up)

B1: H4H12863P (antibody, human IgG4 S228P, kappa, V domains shown)
VH: QVQLVESGGGVVQPGRSLRLSCTASGFTFRSYDMYWVRQAPGKGLEWVSVITYDGNNKYYADSVKGRFTISRDNSKNTLFLQMSSLRPEDTAVYYCAKRGLIWVGESFDYWGQGTLVTVSS
VL: DIQMTQSPSTLSASVGDRVTITCRASQSINSWLAWYQQKPGKAPNLLIYKASSLESGVPSRFSGSGSGTEFTLTISSLQPDDFATYYCQQYKSYSWTFGQGTKVEIKR
B2: human IL-7 (ligand, UniProt P13232 26-177, looked up)
chain: DCDIEGKDGKQYESVLMVSIDQLLDSMKEIGSNCLNNEFNFFKRHICDANKEGMFLFRAARKLRQFLKMNSTGDFDLHLLKVSEGTTILLNCTGQVKGRKPAALGEAQPTKSLEENKSLKEQKKLNDLCFLKRLLQEIKTCWNKILMGTKEH
B3: H4H12857P (antibody, human IgG4 S228P, kappa, V domains shown)
VH: EVQLVESGGGVVRPGGSLRLSCAASGFTFDDFDMSWVRQGPGKGLEWVSGINWHGSSTGYADSVKGRFTISRDNAKNSLYLQMSSLRAEDTALYHCVRGGTIVGATTPLDYWGQGTLVTVSS
VL: DIQMTQSPSSLSASVGDRVTMTCRASRTISSYLSWYQQKSGKVPNLLIFGASSLQSGVPSRFSASGSGTDFTLIISSLQPEDFATYYCQQSYSSPLTFGGGTKVEIKR
B4: H4H12899P (antibody, human IgG4 S228P, kappa, V domains shown)
VH: QVQLVESGGDLVKPGGSLRLSCATSGFTFSDFYMTWIRQAPGKGLEWISYISNSGSIVKYADSVKGRFTISRDNAKNSLYLQMNSLRAEDTAIYYCARFYGDRWGQGTLVTVSS
VL: DIQLTQSPSFLSASVGDRVTITCWASQGISTFLAWYQQKPGKAPKLLIYAASTLQSGVPSRFSGSGSGTDFTLTISSLQPEDFATYHCQQLNNYPWTFGQGTKVEIKR
B5: H4H12900P (antibody, human IgG4 S228P, kappa, V domains shown)
VH: QVQLVESGGGLVKPGGSLRLSCEASGFTFNDFYMTWIRQAPGKGLEWIAYISKSGDKMRYADSVKGRFSTSRDNAKNSLSLQMNSLRAEDTAVYYCARFYGDIWGQGTLVTVSS
VL: B4 VL with G28D, T31S, A34V, K45N, T53A, D70E, T85S, H87Y, Q89E
B6: H4H12874P (antibody, human IgG4 S228P, kappa, V domains shown)
VH: QVQLVESGGGVVQPGRSLRLSCAASGFNFRNFGMHWVRQAPGKGLEWVAGILYDGSSKYYADSVKDRFTISRDNSKNTLFLQMNSLRAEDTAMYYCAKEEDTAMVPFDSWGPGTLVTVSS
VL: B4 VL with T31S, F32Y, K45T, D70E, T85S, H87Y, N92K, N93S, W96L, Q100G
B7: H4H12858P (antibody, human IgG4 S228P, kappa, V domains shown)
VH: EVQLVESGGDLVQPGGSLRLSCTASGFIFRNYAMNWVRQAPGKGLEWLSGILGSNDNTYYVDSVKGRFTISRDNSRNTLYLQMNSLRAEDSAVYYCAKGDAGGFDYWGQGTLVTVSS
VL: DVVMTQSPLSLPVILGQPASISCRSSQSLVSSDGNTYLNWFQQRPGQSPRRLIYKVSNRDSGVPDRFSGSGSGTDFTLKISRVEAEDVGAYYCMQGSYWPPTFGQGTKLEIKR
B8: H4H13538P (antibody, human IgG4 S228P, kappa, V domains shown)
VH: EVQLVESGGGLVQPGGSLGLSCAASGFTFSNYAMSWVRQAPGKGLEWVSAVSGGGGGTYYADSVKGRFTISRDNSKNTVLLQMNSLRAEDTAVYYCARGRTGGLDYWGPGTLVTVSS
VL: B7 VL with L15F, S31D, F41L, K55E, K79T, A90I, S97T, Y98R, Q105G, L109V
B9: H4H13541P (antibody, human IgG4 S228P, kappa, V domains shown)
VH: EVQLVESGGGVVRPGGSLRLSCAASGFIFDDYDMSWVRQPPGRGLEWVSGIDWFGGTRGYADSMKGRFTISRDNAKNSLYLQMNSLRVEDTAFYYCARGGAIVGAVTPFDYWGQGTLVTVSS
VL: DIQMTQSPSSLSASVGNRVTLSCRASQSINTYLSWYQQRPGKAPKLLIYAASSLQSGVPSRFSGSGAGTDFTLTISSLQPEDFATYYCQQSYSAPLTFGGGTKVEIKR

Tests used:
[1] = molecular target: T1, human IL-2Rγ expressed on cells (NK-92, Jurkat) (human); assay: flow cytometry on Jurkat cells (endogenous human IL-2Rg), antibody 10 ug/ml
[2] = molecular target: T2, mouse IL-2Rγ expressed on cells (MC/9) (mouse); assay: flow cytometry on MC/9 cells (endogenous mouse IL-2Rg), antibody 10 ug/ml
[3] = molecular target: T1, human IL-2Rγ expressed on cells (NK-92, Jurkat) (human); assay: flow cytometry on NK-92 cells (endogenous human IL-2Rg), antibody 10 ug/ml
[4] = molecular target: T3, human IL2Rγ expressed on cells (human); assay: cell-based or functional assay
[5] = molecular target: Human IL2Rγ extracellular domain expressed with a C-terminal mouse IgG2a Fc tag (human); assay: SPR Biacore 4000, mAb captured by anti-human Fc, 25 C

| Binder | Binding Ratio (Sample over unstained MFIs) [1] | Raw MFI [1] | Binding Ratio (Sample over unstained MFIs) [2] | Raw MFI [2] | Binding Ratio (Sample over unstained MFIs) [3] | Raw MFI [3] | EC50 [M] of ligand; NK92/hIL7R/STAT3-luc [4] | 100 nM Ag Bound [5] |
| --- | --- | --- | --- | --- | --- | --- | --- | --- |
| B1 | 13 | 1170 MFI | 1 | 185 MFI | 87 | 13000 MFI | – | – |
| B2 | – | – | – | – | – | – | 3.9e-11 M | – |
| B3 | 1 | 103 MFI | 1 | 198 MFI | 37 | 5490 MFI | – | – |
| B4 | 1 | 114 MFI | 1 | 167 MFI | 18 | 2670 MFI | – | 1 RU |
| B5 | 1 | 110 MFI | 1 | 128 MFI | 28 | 4200 MFI | – | 4 RU |
| B6 | 6 | 507 MFI | 1 | 202 MFI | 44 | 6580 MFI | – | – |
| B7 | 1 | 99 MFI | 1 | 199 MFI | 2 | 228 MFI | – | – |
| B8 | – | – | – | – | 1 | 235 MFI | – | – |
| B9 | – | – | – | – | 37 | 7050 MFI | – | – |
